Data: patent publication US20260049134A1 (UNIVERSITY OF FLORIDA RESEARCH FOUNDATION, published 2026)

T1: IGSF11 (VSIG3)
T1 construct: coated protein in the ELISA; also called IGSF11-Fc (R&D Systems)
T1 chain: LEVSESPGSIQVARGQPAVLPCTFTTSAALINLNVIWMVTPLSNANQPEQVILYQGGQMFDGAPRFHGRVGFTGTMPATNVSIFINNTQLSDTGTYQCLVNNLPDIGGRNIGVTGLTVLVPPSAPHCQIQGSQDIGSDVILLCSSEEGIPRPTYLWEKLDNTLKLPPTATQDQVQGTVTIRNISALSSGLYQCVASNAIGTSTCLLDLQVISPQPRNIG

T2: DCC
T2 construct: coated protein in the ELISA; also called DCC-His (R&D Systems)
T2 chain: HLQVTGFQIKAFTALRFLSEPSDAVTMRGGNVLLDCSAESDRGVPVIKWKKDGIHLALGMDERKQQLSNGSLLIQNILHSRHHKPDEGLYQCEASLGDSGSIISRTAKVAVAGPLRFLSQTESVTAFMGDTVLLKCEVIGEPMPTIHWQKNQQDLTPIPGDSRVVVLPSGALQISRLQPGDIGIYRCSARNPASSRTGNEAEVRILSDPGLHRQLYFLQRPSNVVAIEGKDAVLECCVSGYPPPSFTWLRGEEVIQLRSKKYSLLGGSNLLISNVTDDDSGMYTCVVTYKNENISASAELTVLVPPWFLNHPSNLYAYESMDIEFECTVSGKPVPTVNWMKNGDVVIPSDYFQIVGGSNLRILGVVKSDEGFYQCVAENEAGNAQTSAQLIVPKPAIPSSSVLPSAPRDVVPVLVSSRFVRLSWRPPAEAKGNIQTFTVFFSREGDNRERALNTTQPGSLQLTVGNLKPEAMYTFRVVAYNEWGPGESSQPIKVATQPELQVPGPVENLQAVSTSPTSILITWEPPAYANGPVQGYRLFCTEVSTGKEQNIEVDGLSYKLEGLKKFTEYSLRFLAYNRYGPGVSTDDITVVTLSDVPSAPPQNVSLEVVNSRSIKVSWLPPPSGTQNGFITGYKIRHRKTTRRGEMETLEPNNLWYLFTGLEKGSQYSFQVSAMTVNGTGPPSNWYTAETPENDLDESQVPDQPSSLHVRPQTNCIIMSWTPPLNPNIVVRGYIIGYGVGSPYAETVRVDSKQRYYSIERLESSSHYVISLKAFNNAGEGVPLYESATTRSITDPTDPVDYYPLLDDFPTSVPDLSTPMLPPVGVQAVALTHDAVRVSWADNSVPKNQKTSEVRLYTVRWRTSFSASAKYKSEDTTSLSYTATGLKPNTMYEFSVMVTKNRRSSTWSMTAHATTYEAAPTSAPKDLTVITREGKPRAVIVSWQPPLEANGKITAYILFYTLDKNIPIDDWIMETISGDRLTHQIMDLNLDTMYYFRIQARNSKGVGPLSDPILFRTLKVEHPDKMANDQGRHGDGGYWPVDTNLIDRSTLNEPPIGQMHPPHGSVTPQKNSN

T3: PTPRG-Fc (ECD of human PTPRG, aa 20-736, fused to human Fc gamma 1) (human, UniProt P23470 20-736)
T3 construct: Made in-house in Expi293 cells; Used in ELISA and SPR; also called recombinant PTPRG-Fc; PTRPG; not shown: human IgG1 Fc (Fc gamma 1) after the hinge
T3 sequence: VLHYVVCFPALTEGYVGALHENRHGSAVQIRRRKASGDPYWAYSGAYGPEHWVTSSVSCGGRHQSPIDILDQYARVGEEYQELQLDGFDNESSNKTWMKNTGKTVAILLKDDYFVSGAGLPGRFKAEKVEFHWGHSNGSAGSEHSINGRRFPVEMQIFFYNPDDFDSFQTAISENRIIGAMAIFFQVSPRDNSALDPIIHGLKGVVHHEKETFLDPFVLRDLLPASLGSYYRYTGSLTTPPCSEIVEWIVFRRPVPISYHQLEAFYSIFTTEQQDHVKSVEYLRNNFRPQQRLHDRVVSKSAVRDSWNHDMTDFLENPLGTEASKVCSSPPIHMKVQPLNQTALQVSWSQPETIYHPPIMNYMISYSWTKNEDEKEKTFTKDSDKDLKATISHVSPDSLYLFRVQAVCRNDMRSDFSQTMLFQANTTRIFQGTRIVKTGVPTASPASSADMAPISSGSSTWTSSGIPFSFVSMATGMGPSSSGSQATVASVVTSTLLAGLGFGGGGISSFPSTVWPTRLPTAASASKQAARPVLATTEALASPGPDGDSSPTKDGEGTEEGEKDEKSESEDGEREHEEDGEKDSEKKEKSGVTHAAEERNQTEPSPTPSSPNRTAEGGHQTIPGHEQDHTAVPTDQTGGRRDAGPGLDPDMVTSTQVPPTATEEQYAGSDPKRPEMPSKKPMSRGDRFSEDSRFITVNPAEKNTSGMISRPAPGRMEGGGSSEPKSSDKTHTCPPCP


Key:
IGSF11 (VSIG3) = molecular target: T1, IGSF11 (VSIG3); assay: ELISA on coated IGSF11-Fc
Protocol: (§1) Recombinant purified ECDs (50-150 ng) of each putative target protein were coated, incubated with 150 ng of the indicated primary antibody, and binding was detected using a peroxidase-conjugated anti-human Fab secondary antibody. Heatmap represents averages of technical triplicates. (8B) Target validation via siRNA knockdown. H929 cells were transfected with siRNA pools targeting the putative antibody targets ICAM1, CADM1, and PTPRG. Cells were then subjected to cognate IgG binding analysis via flow cytometry. (NT, non-targeting siRNA).
(§2) ELISA ELISA was conducted as described previously. Briefly, 50-150 ng of antigen was coated overnight in half-area 96-well plates at 4° C., blocked with 3% BSA at 37° C. for 1 h, and 150 ng of chimeric rabbit/human IgG1 was added, incubating for 2 h at 37° C. […] After incubating at 37° C. for 15 min-1 h (depending on intensity of controls), data were acquired using a SpectraMax M5 plate reader (Molecular Devices).

DCC = molecular target: T2, DCC; assay: ELISA on coated DCC-His, 150 ng IgG1; None 0.095
Protocol: as §1, §2

[1] = molecular target: T3, PTPRG-Fc (ECD of human PTPRG, aa …); assay: ELISA on coated PTPRG-Fc, 150 ng IgG1; None 0.117
Protocol: as §1, §2

PTP4A3 (PRL-3) = molecular target: T4, PTP4A3 (PRL-3); assay: ELISA on coated His-PTP4A3
T4 construct: coated protein in the ELISA; also called His-PTP4A3 (R&D Systems)
Protocol: as §1, §2

T4 sequence (chain, as listed by the source limits assumed): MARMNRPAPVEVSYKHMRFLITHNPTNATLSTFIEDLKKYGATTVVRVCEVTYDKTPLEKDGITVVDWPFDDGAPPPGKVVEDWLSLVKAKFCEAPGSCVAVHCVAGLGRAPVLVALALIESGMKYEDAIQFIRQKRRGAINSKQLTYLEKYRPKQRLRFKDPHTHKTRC

| Binder | binding result (IGSF11 (VSIG3)) | ELISA Absorbance (405 nm-570 nm) (DCC) | ELISA Absorbance (405 nm-570 nm) [1] | binding result (PTP4A3 (PRL-3)) |
| --- | --- | --- | --- | --- |
| HW-8 chimeric rabbit-human IgG1 LA/LA/PG (antibody, V domains shown, Fc-silenced (L234A/L235A/P329G) IgG1, kappa; Alexa Fluor 647-labeled in single-step flow cytometry; Cluster C-45) VH: QSLEESGGRLVTPGTPLTLTCTVSGFSLSSYAMSWVRQAPGKGLEWIGAISTGGSTTYASWAKGRFTISKTSSTTVDLKMTSLTTEDTATYFCVRHFRLWGPGTLVTISS VL: QVLTQTPSSVSAAVGGTVTIKCQASQSIGSALAWFQQKPGQRPKLLIYRASNLASGVPSRFKGSGSGTEFALTISGVQREDAATYYCLGGAAAVWAFGAGTNVEIKR | no binding (tested: 150 ng IgG1 per well) | 0.074 | 0.069 | no binding (tested: 150 ng IgG1 per well) |
| HW-16 chimeric rabbit-human IgG1 LA/LA/PG (antibody, V domains shown, Fc-silenced (L234A/L235A/P329G) IgG1, kappa; Alexa Fluor 647-labeled in single-step flow cytometry; Cluster C-45) VH: QSLEESGGRLVTPGTPLTLTCTASGFSLSSYAMSWVRQAPGKGLEWIGTMPTGGGTYYASWAKGRFTISKTSTTVDLQITSPTTEDTATYFCAKHWNIWGPGTLVTISS VL: DIVLTQTPSSTSTAVGDTVTINCRASQSIGRNLAWFQQKPGQPPKLLIYRASNLASGVPSRFKGSGSRTQFTLTISGVQREDAATYYCLGSYSSSDTAFGGGTELEILR | no binding (tested: 150 ng IgG1 per well) | 0.129 |  | no binding (tested: 150 ng IgG1 per well) |
| HW-42 chimeric rabbit-human IgG1 LA/LA/PG (antibody, V domains shown, Fc-silenced (L234A/L235A/P329G) IgG1, lambda; Alexa Fluor 647-labeled in single-step flow cytometry; Cluster C-1) VH: QSVKESEGGLFKPADTLTLTCTVSGFSLSSNEISWVRQAPGEGLEYIGIIDTGGRAYYAVWARSRSTITRNTNLNTVTLKMTSLTAADTATYFCARGGVDTEWYAFSSWGPGTLVTVPS VL: SFVLTQPASVQVNLGQTVSLTCTADTLSRRYASWYQQKPGQAPVLLIFRDTSRPSGVPDRFSGSSSGDTATLTISGAQAGDEADYYCATSDGSGSNYQYVFGGGTQLTVTG | no binding (tested: 150 ng IgG1 per well) | 0.098 | 0.341 | no binding (tested: 150 ng IgG1 per well) |
| HW-1 chimeric rabbit-human IgG1 LA/LA/PG (antibody, V domains shown, Fc-silenced (L234A/L235A/P329G) IgG1, lambda; Alexa Fluor 647-labeled in single-step flow cytometry; Prototype of cluster C-1) VH: QSLEESGGGLFKPTDTLTLTCTASGFSLGSSYAISWVRQAPGKELEWIGTIDSGRAYYARWAKSRSTITRNTNENTVTLKMTSLTAADTATYFCARDLIPTYSQDIWGPGTLVTISS VL: SFVLTQPASVQVNLGQTVSLTCTADTLSRRYASWYQQKPGQAPVLLIYRDTSRPSGVPDRFSGSSSGNTATLTISGAQAGDEADYYCATSDGSGNSYQYVFGGGTQLTVTS | no binding (tested: 150 ng IgG1 per well) | 0.068 | 0.756 | no binding (tested: 150 ng IgG1 per well) |
| HW-28 chimeric rabbit-human IgG1 LA/LA/PG (antibody, V domains shown, Fc-silenced (L234A/L235A/P329G) IgG1, lambda; Alexa Fluor 647-labeled in single-step flow cytometry; Cluster C-45) VH: QKQLVESGGRLVTPGTPLTLTCTASGFSLSSNAMSWVRQAPGEGLQWIGTISSGGSTYYASWAKGRFTISKTSTTVTLKMTSLTTEDTATYFCARGADLHRLWGPGTLVTVSS VL: SFVLTQPASVQVNLGQTVSLTCTGKPLSRSFASWYQQKPGQAPVLVIYRDTSRPSGVPDRFSGSSSGNTATLTISGAQAGDEADYYCATSDGSGSSYQYVFGGGTQLTVTG |  | 0.128 | 0.121 |  |
| HW-25 chimeric rabbit-human IgG1 LA/LA/PG (antibody, V domains shown, Fc-silenced (L234A/L235A/P329G) IgG1, lambda; Alexa Fluor 647-labeled in single-step flow cytometry; Cluster C-1) VH: QSLEESGGRLVTPGTPLTLTCTVSGFSLSSYAMGWVRQAPGKGLEWIGIIDSRGSTYYATWAKGRFTISKTSTTVDLKITSPTTEDTATYFCAREDSYYYDSFNLWGPGTLVTVSS VL: SFVLTQPASVQVNLGQTVSLTCTADTLSRRYASWYQQKPGQAPVLLIYRDTSRPSGVPDRFSGSSSGNTATLTISGAQAGDEADYYCATSDGSGSSYQCVFGGGTQLTVTG | no binding (tested: 150 ng IgG1 per well) | 0.063 | 0.784 | no binding (tested: 150 ng IgG1 per well) |
| HW-70 chimeric rabbit-human IgG1 LA/LA/PG (antibody, V domains shown, Fc-silenced (L234A/L235A/P329G) IgG1, lambda; Alexa Fluor 647-labeled in single-step flow cytometry; Cluster C-1) VH: QSLEESGGRLVTPGTPLTLTCTVSGFSLSSNAMSWVRQAPGKGLEWIGTIDGYGYTYYASWAKGRFTVSKTSTTVDLKITSPTTEDTATYFCAREIYLGSNFWGPGTLVTISS VL: SFVLTQPASVQVNLGQTVSLTCTADTLSRRYASWYQQKPGQAPVLLIYRDTSRPSGVPDRFSGSSSGNTATLTISGAQAGDEADYYCATADGSGSSYQFVFGGGTQLTVTG | no binding (tested: 150 ng IgG1 per well) | 0.086 | 0.29 | no binding (tested: 150 ng IgG1 per well) |
| HW-17 chimeric rabbit-human IgG1 LA/LA/PG (antibody, V domains shown, Fc-silenced (L234A/L235A/P329G) IgG1, lambda; Alexa Fluor 647-labeled in single-step flow cytometry; Cluster C-1) VH: QSLGESRGRLVTPDETLTLTCTVSGIDLSSNAMSWVRQAPGEGLEWIGTINTGGRAYYASWAKGRFTISRTSTTVDLKMTSLTTEDTATYFCARERYSDGRAYDIWGPGTLVTISS VL: SFVLTQPASVQVNLGQTVSLTCTADTLSRRYASWYQQKPGQAPVLLIYTDSNRPSGIPDRFSGSSSGNTATLTISGAQAGDEADYYCATDDGSGSIYQYVFGGGTQLTVTG | no binding (tested: 150 ng IgG1 per well) | 0.077 | 0.756 | no binding (tested: 150 ng IgG1 per well) |
| TH9-0022 (antibody, human IgG1, kappa, L234A L235A, V domains shown, also called TH9-022; negative control) VH: QSLEESGGRLVTPGTPLTLTCTVSGFSLSSYAMNWVRQAPGKGLEWIGIINSYGSTYYASWAKGRFTISKTSTTVDLKITSPTTEDTATYFCARVTYDSYGYGYAPYGMDLWGPGTLVTVSS VL: LVMTQTPSSTSNAVGGTVTIKCQASQSIGNVLAWYQQKPGQPPKLLIYAASTLASGVPSRVGGSRSGTEYTLTISGVQREDAATYYCLGSDSDSDIAFGGGTELEILR | no binding (tested: 150 ng IgG1 per well) | 0.079 | 0.106 | no binding (tested: 150 ng IgG1 per well) |
